Values quoted from earlier work, collected in publication PMC6953883, “Alterations of aqueous humor Aβ levels in Aβ-infused and transgenic mouse models of Alzheimer disease” (PLoS ONE, 2020).

Conditions: previous studies

## Aβ: amyloid-β peptide of cited efflux and retention studies; Shibata et al. used Aβ(1-40)
  half-time of Aβ efflux from CSF to blood: 34.63 min
